Results published in the supplement of paper PMC12764529.
± gives the half width of the 95% confidence interval.

Tests used:
[1] = folding stability dG unfold (combined trypsin and chymotrypsin); higher = more stable
How it was run: (§1)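 Designed mini-proteins with no cysteine and under 80 residues were kept only if AlphaFold2 dimer inter-PAE was above 15. In a PA-tagged cDNA display construct, they were digested with trypsin and chymotrypsin and then sequenced. K50 was inferred by Bayesian fitting of counts, and unfolding free energy was derived per protease or combined against a sequence-predicted unfolded-state K50 and a shared folded-state K50.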

[2] = folding stability dG unfold from chymotrypsin proteolysis; higher = more stable
How it was run: as §1

[3] = folding stability dG unfold from trypsin proteolysis; higher = more stable
How it was run: as §1

Row | Sequence | folding stability dG unfold [1] [kcal/mol] | folding stability dG unfold [2] [kcal/mol] | folding stability dG unfold [3] [kcal/mol]
1 | SEAEAVTFPVPNPEDGELVADLAVARNPETGEWTVRLEHEDGKTVEVTFPEDEELPVDGLPPGLRATFTGSA [r9_1150_TrMRF] | -0.401 ± 0.13 | -0.916 ± 0.7 | -0.195 ± 0.12
2 | SEEEVEEPEVRVEVREIRLDDLTEEERRRLRELAERLAREEPPEELPPGYRVRVEIRDGVIVSVEVEPVPSA [r9_905_TrROS_Hall] | 1.85 ± 0.16 | 1.9 ± 0.075 | 1.84 ± 0.039
3 | SEIEIEPLTLDEPVEYRVPEGGFTITAYAAPGPLLVRVRIPGTGEEFEIAVPLGEPNWEEVAEAVVRAIRSA [r9_982_TrMRF] | 1.56 ± 0.058 | 1.27 ± 0.086 | 1.759 ± 0.015
4 | SEINFKPVKVDKNGNFYVENETKPGLVEKLIEAIKELFPGVEITEIKEIPEPPKIEIKAKHPSGKEFTFGSA [r9_1164_TrMRF] | 0.825 ± 0.11 | 0.789 ± 0.11 | 0.927 ± 0.074
5 | SEKLTVTLTLTVVTTETRVTYDKETGELTVETRTEVRTLTLTVTADSEEEAKRAVQELLDALEKNPELLSSA [r9_77_TrROS_Hall] | 4.66 ± 0.15 | 4.94 ± 0.13 | 3.8 ± 0.14
6 | SEKLVIFVPPNMTVEEIVALAKKYPDKEIVIVMPPNMSEEQKERILKALRDAGLPEGVKVTIVEVEPEDLSA [r9_670_TrROS_Hall] | 3.85 ± 0.19 | 3.81 ± 0.16 | 3.73 ± 0.095
7 | SEKRMEVEIKIPITMVVPKEMFEPDPDNGRYRFPDNGKPIRPNQVHPMPIEIKGPMPPGDAQKLLKDLLKSA [r9_165_TrROS] | -0.203 ± 0.16 | -0.119 ± 0.11 | -0.347 ± 0.1
8 | SELAEEAAKRAREAFAEEHPGWDVLSVEVEVEKDPNNDVVTVTVKLTLRRESPEPREEVLEEEVTLTFPLKS [r1_181_JUSTAS] | 2.91 ± 0.067 | 3.24 ± 0.043 | 2.14 ± 0.05
9 | SETVTVTVTVTVTLYRRRPDGKWVPIAELTVTVTRTVEKEDEEEARRAVREEVEDELRKLAEELGVEIEPSA [r9_356_TrROS_Hall] | 5.6 ± 0.15 | 5.79 ± 0.12 | 3.94 ± 0.095
10 | SEVVLEVKVEVRVKRNENGELEVEVKVEVKLVELEPPEPRIELSEEEREKLKEEAEKLGLELTDEELEALSA [r9_487_TrROS_Hall] | 1.75 ± 0.2 | 1.87 ± 0.15 | 1.9 ± 0.13
11 | SEWVKVKVEIKMPFYNGNKPMPMSIEVEYEVPPNDPGMTPEDLPPEELAKEAIEKAYDYMRKLGLPPDMFSA [r9_516_TrROS] | 2.74 ± 0.39 | 2.97 ± 0.12 | 2.21 ± 0.19
12 | SEWVSFMFPFKFEPDDGKIRIKIKMKAPDGEPLGEHEHPVRRDGDKVEVMQMITFPLPKGAQLDKIEIEPSA [r9_292_TrROS] | 0.922 ± 0.24 | 1.11 ± 0.34 | 0.778 ± 0.26
13 | SFFVEFGIEHNPENNYIHINFRIYEPDPNGQWRPSSSIPITIPIKIPPPPVPKIEVPEGAKDPEDAADALSA [r9_888_TrROS] | 3.75 ± 0.68 | 4.43 ± 0.3 | 2.92 ± 0.2
14 | SFLSPGDKFKFPNGNNYRIENFDISYDPGNNNPMIEIELVPLPPPKPEDENKKDPDGKTKTENKYKYKGPSA [r9_914_TrROS] | 0.968 ± 0.45 | 0.879 ± 0.5 | 0.61 ± 0.28
15 | SGGMEKTENGNVRPVPLPTTVVKETPPEVSPEEAKERVEKELKEKGYKNVKVTTSYDPSTNLVTITVTVESA [r9_1124_JUSTAS] | 0.564 ± 0.09 | 0.624 ± 0.076 | 0.447 ± 0.071
16 | SGIGEMSPEEIAKRLAEELGLSGIEVSVSTEGNTLTIPVKAKDPVKNEEITITITITPENGGKIKITTAGSA [r9_1042_JUSTAS] | 0.444 ± 0.21 | 0.299 ± 0.057 | 0.397 ± 0.12
17 | SGITPEQIEELAREIADLFPDVEIEIYPGLEPSIFDGPGAVAVIEREEGRGYITIYFPETGEPLVIEVPDSA [r9_1062_TrMRF] | 1.37 ± 0.2 | 1.3 ± 0.033 | 1.5 ± 0.079
18 | SGKKIEIVKKILEELGIPIVKIEEVTPDRIVVEVEEGRRISIAIKPDDPDVVLIDPKPTEDGGWSSDLPDSA [r9_809_TrMRF] | 1.06 ± 0.12 | 0.939 ± 0.042 | 1.26 ± 0.038

Row | Sequence | folding stability dG unfold [1] [kcal/mol] | folding stability dG unfold [2] [kcal/mol] | folding stability dG unfold [3] [kcal/mol]
19 | SGMEQKVEVLRVGAPGEEAVTRFTFKFEDKEFTLEASARLPDGSLVLLDFHVYRDPEGTFRVDVVVYPGFSA [r9_255_TrMRF] | 2.93 ± 0.1 | 3.27 ± 0.043 | 2.01 ± 0.069
20 | SGMLAPDATVTTTEIVFEKDPKTGLYYLTVKEKTVTVKPDSSGRLVLTTSPVTITDLGPLTPEEAEKLLSSA [r9_423_JUSTAS] | 2.51 ± 0.085 | 2.73 ± 0.031 | 2.16 ± 0.052
21 | SGMLLTVATKTEESELPDGGKKKVTTTTVELSGPHSVTYTPVTTLAPDGTVPASTTTVYDTVSGETTTAPSA [r9_641_JUSTAS] | 0.145 ± 0.074 | -0.2 ± 0.058 | 0.259 ± 0.032
22 | SGMMNNTTITVTDSEPLPDGSVLTNALTFTSSSAGISSPLDLSLSKTPVSSSTTYTNNGVAPASISLNSLSA [r9_1113_JUSTAS] | 0.697 ± 0.049 | 0.611 ± 0.075 | 0.678 ± 0.019
23 | SGMPTLEIEIEFPEVKGETPVPGTDRTLIDTPMKITVTKIENGPPETVEVELPPKLWTEEIEERIKKILGSA [r9_656_JUSTAS] | 0.485 ± 0.47 | 1.2 ± 0.27 | -0.248 ± 0.66
24 | SGMTSSFEVSPVGDILVVTVSLHFPGLGLSSTASATQDPSSDSMSLDLTIPFPPEDLAPLSLSLSLKPPESA [r9_887_JUSTAS] | 2.87 ± 0.23 | 3.62 ± 0.27 | 2.61 ± 0.12
25 | SGPGPEKIKEIIKKLFPNLKIESIEEDPATGKYTIKFPNGYTVEVEVPPDGTVTLTVKTPNSTTTFTVPESA [r9_304_JUSTAS] | 2.26 ± 0.063 | 2.32 ± 0.031 | 2.15 ± 0.086
26 | SGPTSTVDPEFPGSTPGGTVTPSVVRVPVPPDEVERVIEEIRERAGVPGLKVERVERTADGVVLIEVSLPSA [r9_1101_JUSTAS] | 0.882 ± 0.066 | 1.15 ± 0.015 | 0.36 ± 0.029
27 | SGPVPLPVEVTFEPNSETTVTLPSGRTYTVPTPPNGSATATADPATGVVTITVTSGSSTTTLTFPVPAELSA [r9_226_JUSTAS] | 0.592 ± 0.051 | 0.712 ± 0.033 | 0.361 ± 0.006
28 | SGQHKVTVPIEIRIYPPDPDGKWKPIGEIPIPVTYEYPKDQPEKAERQAREQVIDEIKKFAKKNGYRIYISA [r9_356_TrROS] | 0.361 ± 0.2 | 0.287 ± 0.36 | 0.452 ± 0.15
29 | SGSFASVTEDSLPDGGGYIVATEVSTGASRVYPPGTVVAEPAPADSTLVETLYDPATGEPLSTTTRTVAASA [r9_209_JUSTAS] | -0.0457 ± 0.11 | 0.00381 ± 0.13 | -0.712 ± 0.2
30 | SGSMTIKLTPDSPVEDVVKFIAENPNVNVTLLMPPEMSEELREKFEKALKEANVPKSQKVTFEVVPPGEESA [r9_670_JUSTAS] | 3.55 ± 0.15 | 3.87 ± 0.099 | 2.6 ± 0.14
31 | SGSPSDDIVTTPLPGPSERATFPDGSSISRSPAGVTTTTSPTSITTTTTTPSATVTSTTTSLPPPSPSAPSA [r9_901_JUSTAS] | -0.0591 ± 0.07 | 0.184 ± 0.015 | -0.696 ± 0.034
32 | SGSSMGPPDVKERLIDIPSSELSPEVLEEIIEEAIKEGYSVVTINIPEGKYITIELKDGKVTKITEKSLESA [r9_905_JUSTAS] | 1.76 ± 0.088 | 1.75 ± 0.047 | 1.84 ± 0.035
33 | SGSTTLKTTTIPEGPLTVETTISPDGVVTGTIYDPEGKKIADYTMTYTWTTLPNGEKRLETVTVTINLGLSA [r9_434_JUSTAS] | 2.35 ± 0.07 | 2.55 ± 0.063 | 1.9 ± 0.05
34 | SGSVELSFDPSKPYKVKITATAPKDGTPYEVSGTTDPATGTITLPIRRPGSGEPLPPEELEFEIEVSPPESA [r9_928_JUSTAS] | 0.167 ± 0.066 | 0.342 ± 0.12 | -0.244 ± 0.071
35 | SGYVVRIYRPNEKGEPVKIVLPDEEAEELYKELVDEEMSVEEFAERLKKLFPDAKVEVRKAEDIPPEELLSA [r9_1085_TrMRF] | 2 ± 0.058 | 1.85 ± 0.023 | 2.13 ± 0.07
36 | SIFRIRMPGNREFRIFIPPDGMVNVSMPNGKKHTHPFKDKEDAKEIADVLSKHFPNMPVEIEPIPPDDIKSA [r9_1206_TrROS] | 0.793 ± 0.37 | 0.166 ± 0.91 | 1.26 ± 0.11
